Four molecules from article PMC12445079 can be followed below.

The experiment addresses Bacillus subtilis GapA (glyceraldehyde-3-phosphate dehydrogenase), His-tagged (Bacillus subtilis) (UniProt P09124).
UniProt P09124, sequence (P09124 whole entry): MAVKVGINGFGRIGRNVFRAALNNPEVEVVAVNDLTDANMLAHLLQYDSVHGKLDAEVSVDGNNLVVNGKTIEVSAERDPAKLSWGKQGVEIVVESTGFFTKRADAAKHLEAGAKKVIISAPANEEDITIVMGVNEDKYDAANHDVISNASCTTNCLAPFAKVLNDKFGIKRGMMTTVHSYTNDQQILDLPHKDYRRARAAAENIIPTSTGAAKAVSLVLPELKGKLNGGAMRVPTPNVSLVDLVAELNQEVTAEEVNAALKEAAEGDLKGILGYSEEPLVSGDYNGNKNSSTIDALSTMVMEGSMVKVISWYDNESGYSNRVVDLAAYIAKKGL

B1: Bacillus subtilis HPr-G54D, His-tagged (natural protein)
chain: MAQKTFKVTADSGIHARPATVLVQTASKYDADVNLEYNGKTVNLKSIMGVMSLDIAKGAEITISASGADENDALNALEETMKSEGLGE
Turning to B1, the catalytic efficiency kcat/KM of GapA with E4P in the presence of HPr-G54D (GAPDH alone: 1.05) is 730 M⁻¹ s⁻¹ and the catalytic efficiency kcat/KM of GapA with G3P in the presence of HPr-G54D (GAPDH alone: 219) was 68500 M⁻¹ s⁻¹.

B2: Bacillus subtilis HPr-S46E, His-tagged (natural protein)
chain: MAQKTFKVTADSGIHARPATVLVQTASKYDADVNLEYNGKTVNLKEIMGVMSLGIAKGAEITISASGADENDALNALEETMKSEGLGE
For the molecule B2, the catalytic efficiency kcat/KM of GapA with E4P in the presence of HPr-S46E (GAPDH alone: 1.05) came out at 2600 M⁻¹ s⁻¹ and the catalytic efficiency kcat/KM of GapA with G3P in the presence of HPr-S46E (GAPDH alone: 219) came to 38800 M⁻¹ s⁻¹.

B3: Bacillus subtilis HPr-S46E, G54D, His-tagged (natural protein)
chain: MAQKTFKVTADSGIHARPATVLVQTASKYDADVNLEYNGKTVNLKEIMGVMSLDIAKGAEITISASGADENDALNALEETMKSEGLGE
Take B3: the catalytic efficiency kcat/KM of GapA with E4P in the presence of HPr-G54D, S46E (GAPDH alone: 1.05) turned out to be 3780 M⁻¹ s⁻¹ and the catalytic efficiency kcat/KM of GapA with G3P in the presence of HPr-G54D, S46E (GAPDH alone: 219) was determined as 164000 M⁻¹ s⁻¹.

B4: Bacillus subtilis histidine-containing phosphocarrier protein (HPr), His-tagged (natural protein)
chain: MAQKTFKVTADSGIHARPATVLVQTASKYDADVNLEYNGKTVNLKSIMGVMSLGIAKGAEITISASGADENDALNALEETMKSEGLGE
As for B4, the catalytic efficiency kcat/KM of GapA with E4P in the presence of HPr (GAPDH alone: 1.05) is 1880 M⁻¹ s⁻¹ and the catalytic efficiency kcat/KM of GapA with G3P in the presence of HPr (GAPDH alone: 219) came to 57400 M⁻¹ s⁻¹.
